± gives the standard deviation of the averaged measurements.
Tested on: ATP
Test: switch fluorescence ratio, 500 uM ATP over buffer (Cy3 cluster intensity, sum of 5 cycles each) (fold (ratio)); higher = stronger signal-on switching upon ATP binding; sequences stand for … in TCGTCGGCAGCGTCAGATGTGTATAAGAGACAGTTTTTTTTTTTTTTTTTTTTTTTTT…TC
Conditions: aptamer strand: ATP DNA aptamer (quencher-CACCTGGGGGAGTATTGCGGAGGAAGG + anchor), 100 nM annealed; ATP concentration: 500 uM
Outline: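 Values give the fluorescence ratio for each switch-domain sequence, averaged from per-cluster ratios of summed target-cycle to summed buffer-cycle Cy3 intensity. The Cy3-labelled switching-strand clusters sat on a modified Illumina MiSeq flow-cell, were annealed to 100 nM quencher-labelled ATP aptamer, and were imaged in selection buffer, then after 15 min with 500 uM ATP at 22 °C. Five cycles ran with NaOH stripping and re-annealing between them, and clusters outside 100-1000 RFU were excluded.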
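Also: ATP exposure 15 min at 22 °C before imaging.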

With GAGGCAATTT the switch fluorescence ratio was 2.87 ± 0.68.
ATTTGCAGCA showed a switch fluorescence ratio of 1.02 ± 0.014.
In the case of ATGTCCTGTG, the switch fluorescence ratio is reported as 1.01 ± 0.028.
Work on AAGGGTATAT yielded a switch fluorescence ratio of 0.9834 ± 0.0063.
TGCAATTGTA gave a switch fluorescence ratio of 1.0195 ± 0.00099.
GCTGAGTAAC was tested, and the switch fluorescence ratio was 0.99 ± 0.0017.
CGTACGTTG showed a switch fluorescence ratio of 1 ± 0.022.
Work on GTATGTCCCC yielded a switch fluorescence ratio of 1.0169 ± 0.00096.
In the case of TTTGATGCAT, the switch fluorescence ratio is reported as 1.03 ± 0.026.
GGGGGAACAC showed a switch fluorescence ratio of 1.05 ± 0.044.
TAGGATGCAC showed a switch fluorescence ratio of 1.014 ± 0.0033.
TGCATTGGTG was tested, and the switch fluorescence ratio was 1.018 ± 0.0019.
CTGGAAGGTG showed a switch fluorescence ratio of 1.811 ± 0.017.
For TCTCATGGAG, the switch fluorescence ratio was 1 ± 0.012.
TGGTGGGGAG gave a switch fluorescence ratio of 1.01 ± 0.045.
Work on TAGGTTTTTT yielded a switch fluorescence ratio of 0.989 ± 0.035.
Work on TGGAAAGTAC yielded a switch fluorescence ratio of 1.28 ± 0.095.
With TTTGGGGGGT the switch fluorescence ratio was 0.985 ± 0.02.
Work on CAGCGGGTCT yielded a switch fluorescence ratio of 1.04 ± 0.054.
For ATCGGGCGGG, the switch fluorescence ratio was 1.02 ± 0.02.
AAGGGTTTAA showed a switch fluorescence ratio of 0.98 ± 0.018.
ATGGTAGCGC gave a switch fluorescence ratio of 1 ± 0.039.
ACTGTTTGTC gave a switch fluorescence ratio of 0.9897 ± 0.0061.
For TTGAGGCCCG, the switch fluorescence ratio was 0.9375 ± 0.0031.
For TCTGCTCTGG, the switch fluorescence ratio was 0.983 ± 0.03.
For GAAGTCCGGG, the switch fluorescence ratio was 0.9871 ± 0.0048.
For GTGTTTTATA, the switch fluorescence ratio was 0.977 ± 0.026.
GAAAGGGGGG was tested, and the switch fluorescence ratio was 1.04 ± 0.098.
GCTCTATGGT was tested, and the switch fluorescence ratio was 1.006 ± 0.0078.
GGCCGTATCT was tested, and the switch fluorescence ratio was 1.03 ± 0.044.
Sequence CGGGGTGTTC has a switch fluorescence ratio of 0.9849 ± 0.0049.
CCAGTGTATA was tested, and the switch fluorescence ratio was 1.002 ± 0.0013.
CGAAGCGGGG was tested, and the switch fluorescence ratio was 1.08 ± 0.054.
With TTTTGCGAAC the switch fluorescence ratio was 1.94 ± 1.2.
GATCTTGGGT showed a switch fluorescence ratio of 1.11 ± 0.19.
Sequence ATTATCTGGT has a switch fluorescence ratio of 1.02 ± 0.043.
Work on TAAAAGTCTA yielded a switch fluorescence ratio of 0.9999 ± 0.0094.
CCGAGGGCAG gave a switch fluorescence ratio of 2.75 ± 0.36.
In the case of ATTGAGTGGC, the switch fluorescence ratio is reported as 0.928 ± 0.026.
GCGGAGCGTA gave a switch fluorescence ratio of 1.06 ± 0.13.
Work on AAATTGGTCC yielded a switch fluorescence ratio of 1.02 ± 0.016.
Work on AGTCCGATTT yielded a switch fluorescence ratio of 1.03 ± 0.061.
In the case of TAAAGAAGTG, the switch fluorescence ratio is reported as 1.01 ± 0.033.
For ATGATGGAAG, the switch fluorescence ratio was 0.982 ± 0.015.
TATGGAGGGC showed a switch fluorescence ratio of 1.06 ± 0.041.
With GGGATGACGA the switch fluorescence ratio was 0.98 ± 0.042.
With TTGCGGTAGC the switch fluorescence ratio was 1 ± 0.016.
Work on CCTTTTAGTT yielded a switch fluorescence ratio of 0.988 ± 0.026.
Sequence TTGAGATACG has a switch fluorescence ratio of 1.001 ± 0.0057.
AGTGTTACG was tested, and the switch fluorescence ratio was 1.01 ± 0.04.
Work on CGCCTCGTAC yielded a switch fluorescence ratio of 1.9 ± 0.062.
GTCCTTTCTG was tested, and the switch fluorescence ratio was 0.988 ± 0.014.
GTTTAAATTA gave a switch fluorescence ratio of 1.02 ± 0.018.
Sequence GGAACATGGG has a switch fluorescence ratio of 1.004 ± 0.0024.
In the case of CGGGGGTCCA, the switch fluorescence ratio is reported as 1.01 ± 0.055.
For AATTGTTGTG, the switch fluorescence ratio was 1 ± 0.022.
ATACTCAGTG showed a switch fluorescence ratio of 1.069 ± 0.0084.
TTTATTAATG gave a switch fluorescence ratio of 1.01 ± 0.026.
TTCTGGATGT was tested, and the switch fluorescence ratio was 0.956 ± 0.023.
CGGATGGCC gave a switch fluorescence ratio of 0.965 ± 0.036.
In the case of ATAAAGCTTA, the switch fluorescence ratio is reported as 1 ± 0.03.
TAGTTATTAG showed a switch fluorescence ratio of 1 ± 0.04.
Sequence TATTCGGAGC has a switch fluorescence ratio of 1.01 ± 0.037.
GGTCGGGC gave a switch fluorescence ratio of 0.969 ± 0.03.
ACATTGTGCG was tested, and the switch fluorescence ratio was 0.969 ± 0.048.
Work on TTGGCATTTG yielded a switch fluorescence ratio of 1.02 ± 0.064.
GGGGGTACCT showed a switch fluorescence ratio of 1.02 ± 0.019.
AGGTCCGCTT showed a switch fluorescence ratio of 1.32 ± 0.039.
Work on TTCACGCTAG yielded a switch fluorescence ratio of 1.0378 ± 0.00056.
TGCGGGGGCG showed a switch fluorescence ratio of 0.992 ± 0.038.
Sequence GTTGTGAAAG has a switch fluorescence ratio of 1 ± 0.035.
TATGAGATTA was tested, and the switch fluorescence ratio was 0.9935 ± 0.004.
AGGAGGTGGT was tested, and the switch fluorescence ratio was 1.04 ± 0.015.
Work on GGGTAAGGGT yielded a switch fluorescence ratio of 1.13 ± 0.37.
AGTGTATCCC showed a switch fluorescence ratio of 1.01 ± 0.034.
With CACATTGTCC the switch fluorescence ratio was 0.9773 ± 0.0025.
Work on TCCTTCAAAG yielded a switch fluorescence ratio of 1.08 ± 0.085.
GGGTTCTGGA showed a switch fluorescence ratio of 1.01 ± 0.019.
In the case of TGGGGGGGCC, the switch fluorescence ratio is reported as 0.968 ± 0.0076.
CATGGGTTGC showed a switch fluorescence ratio of 0.99 ± 0.029.
For GGTACTTGGA, the switch fluorescence ratio was 1.04 ± 0.032.
Work on TCTGGAATTG yielded a switch fluorescence ratio of 1.01 ± 0.03.
AATCTTGATT was tested, and the switch fluorescence ratio was 1.2 ± 0.24.
Sequence GATAGATCAC has a switch fluorescence ratio of 1.03 ± 0.03.
ATCTGTATCC was tested, and the switch fluorescence ratio was 1.05 ± 0.04.
Work on ATCGGTTTTG yielded a switch fluorescence ratio of 1.01 ± 0.021.
AGGGTAATCG was tested, and the switch fluorescence ratio was 1.02 ± 0.011.
TGTCGGCGGT gave a switch fluorescence ratio of 1.05 ± 0.065.
For AAAAAATACG, the switch fluorescence ratio was 1.09 ± 0.091.
In the case of GTTGGGCAGC, the switch fluorescence ratio is reported as 1.046 ± 0.0053.
GCGGGGGGTA was tested, and the switch fluorescence ratio was 1.01 ± 0.03.
GGGCTATGGG was tested, and the switch fluorescence ratio was 0.997 ± 0.049.
Sequence GGCCTGGATC has a switch fluorescence ratio of 1.02 ± 0.057.
In the case of CCAAGGGGGG, the switch fluorescence ratio is reported as 1.11 ± 0.22.
Sequence TGGTCCCGGA has a switch fluorescence ratio of 1 ± 0.017.
ATACTGAATT gave a switch fluorescence ratio of 1.005 ± 0.0065.
In the case of TTTGTTTTTG, the switch fluorescence ratio is reported as 1 ± 0.026.
CTGTTTGCAG showed a switch fluorescence ratio of 0.987 ± 0.056.
Sequence AACTTGGCTT has a switch fluorescence ratio of 0.969 ± 0.035.
With GGGGGGGCAA the switch fluorescence ratio was 1.24 ± 0.48.
Sequence AGGCGGGGCG has a switch fluorescence ratio of 1.02 ± 0.022.
Sequence ATACGGGTAG has a switch fluorescence ratio of 0.9821 ± 0.0052.
In the case of CTGTAGTTTT, the switch fluorescence ratio is reported as 1.04 ± 0.038.
GGATGTTTTG was tested, and the switch fluorescence ratio was 1.03 ± 0.015.
TGTTGCCAAT showed a switch fluorescence ratio of 1.01 ± 0.029.
ATAGTAGTGG showed a switch fluorescence ratio of 1.003 ± 0.0081.
For GTTAACGGAC, the switch fluorescence ratio was 1.17 ± 0.098.
Work on GCGTCAAGAT yielded a switch fluorescence ratio of 1.04 ± 0.042.
Work on GGGGTCTAAT yielded a switch fluorescence ratio of 0.999 ± 0.048.
Sequence AGGGCGGGGT has a switch fluorescence ratio of 1.02 ± 0.033.
In the case of ACGGTTAAGG, the switch fluorescence ratio is reported as 1.03 ± 0.019.
For TTAAAATCTG, the switch fluorescence ratio was 1.02 ± 0.027.
For GGAGGAAAGT, the switch fluorescence ratio was 1 ± 0.029.
With TCATTAGCCT the switch fluorescence ratio was 1.08 ± 0.019.
GCTGGGGCAA showed a switch fluorescence ratio of 1.01 ± 0.037.
In the case of TTACCATTCG, the switch fluorescence ratio is reported as 1.02 ± 0.019.
TCATTTCAGG showed a switch fluorescence ratio of 1.01 ± 0.012.
With AGGGGTCAAT the switch fluorescence ratio was 0.997 ± 0.0012.
CCAGGTGGCT was tested, and the switch fluorescence ratio was 2.64 ± 0.3.
In the case of AGATTATTGA, the switch fluorescence ratio is reported as 0.943 ± 0.031.
TCAGTATAGC showed a switch fluorescence ratio of 1.018 ± 0.004.
GCGATATATG was tested, and the switch fluorescence ratio was 0.9775 ± 0.0032.
In the case of GGGTCGATGT, the switch fluorescence ratio is reported as 1.02 ± 0.056.
Work on AAGCCGTTTG yielded a switch fluorescence ratio of 1.07 ± 0.088.
For TCCCTCAGGG, the switch fluorescence ratio was 1.46 ± 0.078.
CTGGTGGACG showed a switch fluorescence ratio of 1.041 ± 0.0042.
With TTCCGGGGTT the switch fluorescence ratio was 1.03 ± 0.022.
Work on CGTTATGCCT yielded a switch fluorescence ratio of 0.975 ± 0.061.
ATGTTCCTAC gave a switch fluorescence ratio of 1.04 ± 0.011.
TTTTTCCTGT was tested, and the switch fluorescence ratio was 1.01 ± 0.011.
In the case of GTTGAAATAA, the switch fluorescence ratio is reported as 1 ± 0.047.
In the case of ATGAGGGTTC, the switch fluorescence ratio is reported as 0.981 ± 0.044.
In the case of GGTAAGGGCC, the switch fluorescence ratio is reported as 1.01 ± 0.034.
GACAACAAGG was tested, and the switch fluorescence ratio was 1.047 ± 0.0089.
GGTTTGCGGG showed a switch fluorescence ratio of 1.01 ± 0.0095.
For CTGTATTGGG, the switch fluorescence ratio was 0.977 ± 0.013.
In the case of CCTAGAGAGG, the switch fluorescence ratio is reported as 1.031 ± 0.006.
CGATGATTGT was tested, and the switch fluorescence ratio was 1.03 ± 0.059.
Work on GGTCTTTTGT yielded a switch fluorescence ratio of 0.998 ± 0.042.
TATACTTTTT gave a switch fluorescence ratio of 1.01 ± 0.021.
For TGTAGTGTTG, the switch fluorescence ratio was 1 ± 0.043.
Work on TTATAATAGG yielded a switch fluorescence ratio of 1.02 ± 0.032.
Work on CTAGGGGATT yielded a switch fluorescence ratio of 1.02 ± 0.011.
For ATTGTTAAGC, the switch fluorescence ratio was 1.02 ± 0.075.
In the case of TCCAAAATTT, the switch fluorescence ratio is reported as 0.976 ± 0.013.
ACATGAGGGG showed a switch fluorescence ratio of 1.026 ± 0.0094.
Sequence GTTTGGGGAT has a switch fluorescence ratio of 0.972 ± 0.022.
Sequence CCGAAATTTT has a switch fluorescence ratio of 1.05 ± 0.016.
Sequence AAAGTGTTGG has a switch fluorescence ratio of 1.02 ± 0.022.
GGATAGGATT was tested, and the switch fluorescence ratio was 1.025 ± 0.0054.
TTTGGATTTC showed a switch fluorescence ratio of 1 ± 0.013.
TTAGAAGGTG showed a switch fluorescence ratio of 1.16 ± 0.078.
Sequence GGGGAATGGC has a switch fluorescence ratio of 1.05 ± 0.1.
With GTTAAAAAGG the switch fluorescence ratio was 0.998 ± 0.022.
In the case of CCGTATGTGC, the switch fluorescence ratio is reported as 1.751 ± 0.0087.
CTGTGGGTTG gave a switch fluorescence ratio of 1 ± 0.042.
For TCCTTTACTG, the switch fluorescence ratio was 0.9779 ± 0.0072.

Reference: the supplement of paper PMC10126150
